The conditions of this series: Meleagris gallopavo; pH 8; Thermal; Activity; Tris 20 mM; NaCl 0.4 M; structure 2VT4.

“And” between values parts separate entries of the source, which are not always exact repeats. Equal values may be shown once.

Beta-1 adrenergic receptor R68S|M90V|V230A|F327A|A334L, P07700 R68S M90V V230A F327A A334L, sequence (P07700 whole entry R68S/M90V/V230A/F327A/A334L): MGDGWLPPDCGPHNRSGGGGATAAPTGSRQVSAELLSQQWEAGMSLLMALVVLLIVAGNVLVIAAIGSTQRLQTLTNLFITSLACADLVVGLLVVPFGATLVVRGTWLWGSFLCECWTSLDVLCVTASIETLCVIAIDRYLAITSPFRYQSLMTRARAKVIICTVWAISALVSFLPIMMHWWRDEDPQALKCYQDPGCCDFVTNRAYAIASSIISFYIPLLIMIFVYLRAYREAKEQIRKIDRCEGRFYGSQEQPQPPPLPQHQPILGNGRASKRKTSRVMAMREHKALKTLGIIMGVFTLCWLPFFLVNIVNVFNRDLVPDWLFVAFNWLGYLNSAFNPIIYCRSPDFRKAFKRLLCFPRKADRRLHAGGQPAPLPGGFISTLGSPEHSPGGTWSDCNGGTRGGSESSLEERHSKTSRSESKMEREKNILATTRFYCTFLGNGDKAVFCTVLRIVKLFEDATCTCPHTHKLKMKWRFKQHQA
Beta-1 adrenergic receptor R68S|M90V|V230A|A334L, P07700 R68S M90V V230A A334L, sequence (P07700 whole entry R68S/M90V/V230A/A334L): as the sequence (P07700 whole entry R68S/M90V/V230A/F327A/A334L) above, with A327F counted along it
Beta-1 adrenergic receptor G67A|G98A|V230A|D322A, P07700 G67A G98A V230A D322A, sequence (P07700 whole entry G67A/G98A/V230A/D322A): as the sequence (P07700 whole entry R68S/M90V/V230A/F327A/A334L) above, with G67A, S68R, V90M, G98A, D322A, A327F, L334A counted along it
Beta-1 adrenergic receptor R68S|M90V|Y227A|V230A|F327A|A334L, P07700 R68S M90V Y227A V230A F327A A334L, sequence (P07700 whole entry R68S/M90V/Y227A/V230A/F327A/A334L): as the sequence (P07700 whole entry R68S/M90V/V230A/F327A/A334L) above, with Y227A counted along it
Beta-1 adrenergic receptor M90V|I129V, P07700 M90V I129V, sequence (P07700 whole entry M90V/I129V): as the sequence (P07700 whole entry R68S/M90V/V230A/F327A/A334L) above, with S68R, I129V, A230V, A327F, L334A counted along it
Beta-1 adrenergic receptor R68S|M90V|Y227A|V230A|F327A|F338M, P07700 R68S M90V Y227A V230A F327A F338M, sequence (P07700 whole entry R68S/M90V/Y227A/V230A/F327A/F338M): as the sequence (P07700 whole entry R68S/M90V/V230A/F327A/A334L) above, with Y227A, L334A, F338M counted along it
Beta-1 adrenergic receptor R68S|Y227A|A234L|A282L, P07700 R68S Y227A A234L A282L, sequence (P07700 whole entry R68S/Y227A/A234L/A282L): as the sequence (P07700 whole entry R68S/M90V/V230A/F327A/A334L) above, with V90M, Y227A, A230V, A234L, A282L, A327F, L334A counted along it
Beta-1 adrenergic receptor G67A|G98A|V230A, P07700 G67A G98A V230A, sequence (P07700 whole entry G67A/G98A/V230A): as the sequence (P07700 whole entry R68S/M90V/V230A/F327A/A334L) above, with G67A, S68R, V90M, G98A, A327F, L334A counted along it
Beta-1 adrenergic receptor R68S|A334L, P07700 R68S A334L, sequence (P07700 whole entry R68S/A334L): as the sequence (P07700 whole entry R68S/M90V/V230A/F327A/A334L) above, with V90M, A230V, A327F counted along it
Beta-1 adrenergic receptor Y227A|A234L|A334L, P07700 Y227A A234L A334L, sequence (P07700 whole entry Y227A/A234L/A334L): as the sequence (P07700 whole entry R68S/M90V/V230A/F327A/A334L) above, with S68R, V90M, Y227A, A230V, A234L, A327F counted along it
Beta-1 adrenergic receptor M90V|F338M, P07700 M90V F338M, sequence (P07700 whole entry M90V/F338M): as the sequence (P07700 whole entry R68S/M90V/V230A/F327A/A334L) above, with S68R, A230V, A327F, L334A, F338M counted along it
Beta-1 adrenergic receptor R68S|A234L|A334L, P07700 R68S A234L A334L, sequence (P07700 whole entry R68S/A234L/A334L): as the sequence (P07700 whole entry R68S/M90V/V230A/F327A/A334L) above, with V90M, A230V, A234L, A327F counted along it
Beta-1 adrenergic receptor R68S|Y227A|A234L|A334L, P07700 R68S Y227A A234L A334L, sequence (P07700 whole entry R68S/Y227A/A234L/A334L): as the sequence (P07700 whole entry R68S/M90V/V230A/F327A/A334L) above, with V90M, Y227A, A230V, A234L, A327F counted along it
Beta-1 adrenergic receptor G67A|G98A, P07700 G67A G98A, sequence (P07700 whole entry G67A/G98A): as the sequence (P07700 whole entry R68S/M90V/V230A/F327A/A334L) above, with G67A, S68R, V90M, G98A, A230V, A327F, L334A counted along it
Beta-1 adrenergic receptor M90V|Y227A, P07700 M90V Y227A, sequence (P07700 whole entry M90V/Y227A): as the sequence (P07700 whole entry R68S/M90V/V230A/F327A/A334L) above, with S68R, Y227A, A230V, A327F, L334A counted along it
Beta-1 adrenergic receptor M90V|Y227A|F338M, P07700 M90V Y227A F338M, sequence (P07700 whole entry M90V/Y227A/F338M): as the sequence (P07700 whole entry R68S/M90V/V230A/F327A/A334L) above, with S68R, Y227A, A230V, A327F, L334A, F338M counted along it
Beta-1 adrenergic receptor G98A|D322A, P07700 G98A D322A, sequence (P07700 whole entry G98A/D322A): as the sequence (P07700 whole entry R68S/M90V/V230A/F327A/A334L) above, with S68R, V90M, G98A, A230V, D322A, A327F, L334A counted along it

Turning to “Beta-1 adrenergic receptor G67A|G98A, P07700 G67A G98A”, the Tm – broadly, the temperature at the midpoint of the melting transition – stood at 35.5 °C and the “change of melting temperature, mutant - wild type (higher = more stable)” value (“change of melting temperature, mutant” for short) was 3.8 °C.
Regarding “Beta-1 adrenergic receptor G67A|G98A|V230A, P07700 G67A G98A V230A”, the melting temperature (Tm) stood at 38 °C and the “change of melting temperature, mutant” value was determined as 6.3 °C.
With “Beta-1 adrenergic receptor G67A|G98A|V230A|D322A, P07700 G67A G98A V230A D322A”, the Tm came to 40.9 °C and the “change of melting temperature, mutant” value amounted to 9.2 °C.
On the same counts, the results for “Beta-1 adrenergic receptor G98A|D322A, P07700 G98A D322A” are 35 °C and 3.3 °C.
On the same counts, the results for “Beta-1 adrenergic receptor M90V|F338M, P07700 M90V F338M” are 43 °C and 11.3 °C.
On the same counts, the results for “Beta-1 adrenergic receptor M90V|I129V, P07700 M90V I129V” are 40 °C and 8.3 °C.
Consider “Beta-1 adrenergic receptor M90V|Y227A, P07700 M90V Y227A”, for which the Tm stood at 45.2 °C and the “change of melting temperature, mutant” value is 13.5 °C.
On the same counts, the results for “Beta-1 adrenergic receptor M90V|Y227A|F338M, P07700 M90V Y227A F338M” are 45.2 °C and 13.5 °C.
For “Beta-1 adrenergic receptor R68S|A234L|A334L, P07700 R68S A234L A334L” the same measures were 41.9 °C and 10.2 °C.
For “Beta-1 adrenergic receptor R68S|A334L, P07700 R68S A334L” the same measures were 39.1 °C and 7.4 °C.
On to “Beta-1 adrenergic receptor R68S|M90V|V230A|A334L, P07700 R68S M90V V230A A334L”, for which the Tm worked out at 46.9 °C and the “change of melting temperature, mutant” value was determined as 15.2 °C.
As to “Beta-1 adrenergic receptor R68S|M90V|V230A|F327A|A334L, P07700 R68S M90V V230A F327A A334L”, the Tm is 47.3 °C and 48.4 °C; the “change of melting temperature, mutant” value was 15.6 °C and 16.7 °C.
Consider “Beta-1 adrenergic receptor R68S|M90V|Y227A|V230A|F327A|A334L, P07700 R68S M90V Y227A V230A F327A A334L”, for which the Tm was 48.2 °C and the “change of melting temperature, mutant” value stood at 16.5 °C.
On the same counts, the results for “Beta-1 adrenergic receptor R68S|M90V|Y227A|V230A|F327A|F338M, P07700 R68S M90V Y227A V230A F327A F338M” are 49 °C and 17.3 °C.
On to “Beta-1 adrenergic receptor R68S|Y227A|A234L|A282L, P07700 R68S Y227A A234L A282L”, for which the Tm is 41.6 °C and the “change of melting temperature, mutant” value worked out at 9.9 °C.
As to “Beta-1 adrenergic receptor R68S|Y227A|A234L|A334L, P07700 R68S Y227A A234L A334L”, the Tm was 43.7 °C and the “change of melting temperature, mutant” value stood at 12 °C.
In the case of “Beta-1 adrenergic receptor Y227A|A234L|A334L, P07700 Y227A A234L A334L”, the Tm turned out to be 41.6 °C and the “change of melting temperature, mutant” value amounted to 9.9 °C.

The record behind these values is FireProtDB (doi:10.1073/pnas.0711253105).
